Sequences and labels used below:
B1: scFv2 displayed on yeast (scFv, V domains shown)
VH: VLLQQSGPELVKPGASVKIPCKASGYTFTDYEMDWVKQSHGKSLEWIGSINPNNGGTMYNQKFKGKATLTVDKSSSAAYMEVRSLTSEDTAVYYCARKPYYGMNAWFAYWGQGTLVTVSA
VL: IQVTQSSSSFSVSLGDRVTITCKASEDIYNRLAWYQQKPGNAPRLLISGATSLETGVPDRFSGSGSRKDYTLIITSLQTEDVATYYCQQYYALPLTFGAGTKLELK
notes: 25-D1.16 scFv (PDB 3CVH) changed at the nine randomised peptide-contact CDR residues; also called clone 2
B2: scFv19 displayed on yeast (scFv, V domains shown)
VH: VLLQQSGPELVKPGASVKIPCKASGYTFTDYYMDWVKQSHGKSLEWIGTINPNNGGTVYNQKFKGKATLTVDKSSSAAYMEVRSLTSEDTAVYYCARKPYSGHPAWFAYWGQGTLVTVSA
VL: IQVTQSSSSFSVSLGDRVTITCKASEDIYNRLAWYQQKPGNAPRLLISGATSLETGVPDRFSGSGSRKDYTLIITSLQTEDVATYYCQQYYAFPLTFGAGTKLELK
notes: 25-D1.16 scFv (PDB 3CVH) changed at the nine randomised peptide-contact CDR residues; also called clone 19
B3: scFv12 displayed on yeast (scFv, V domains shown)
VH: VLLQQSGPELVKPGASVKIPCKASGYTFTDYDMDWVKQSHGKSLEWIGSINPNNGGTIYNQKFKGKATLTVDKSSSAAYMEVRSLTSEDTAVYYCARKPYRGFHAWFAYWGQGTLVTVSA
VL: IQVTQSSSSFSVSLGDRVTITCKASEDIYNRLAWYQQKPGNAPRLLISGATSLETGVPDRFSGSGSRKDYTLIITSLQTEDVATYYCQQYYGYPLTFGAGTKLELK
notes: 25-D1.16 scFv (PDB 3CVH) changed at the nine randomised peptide-contact CDR residues; also called clone 12

Consider three molecules from article PMC10344781 (Nature Biotechnology, 2023).

The target of the assay is T1, single-chain mouse Trp2/H2-K^b (scpMHC), biotinylated (Mus musculus, H2-Kb, UniProt P01901;P01887, biotin on the biotinylation tag (BirA)).
T1 construct: residues 180-188 of tyrosinase-related protein 2 (Trp2), mouse; linker, (G4S)3 or (G4S)4; beta2M; H2-K^b without the transmembrane domain; used as monomer, as streptavidin tetramer and on an SA chip; also called Trp2/H2-K^b tetramers; Trp2/H2-K^b monomer; source: Expi293, purified (Ni-NTA, Superdex 200)
As to the kind of experiment: flow cytometry on cells; yeast clones expressing TCRm scFv incubated with tenfold serially diluted target pMHC (monomer) for 1 h on ice, then streptavidin-AlexaFluor 647 for 15 min on ice. The note with it: one partner purified. (In general: A flow cytometer gives signals particle by particle.)
B1: the binding result is “binds”.
For B2, the binding result is recorded as “binds”.
Regarding B3, the binding result is given as “binds”.
